# From PMC12277278 (Frontiers in Immunology, 2025)
# B1: F945 IgG (recombinant human monoclonal antibody, IgG1/kappa) (antibody, V domains shown)
# VH: QVQLVESGGGVVQPGRSLRLSCAASGFSFNTYAFHWVRQGPGKGLEWVAGISFDGSKRYYADSVKGRFTVSRDNSKNTLYLQMNGLIPEDTAVYYCARDRRIVVVSAPGYWGQGTLVTVSS
# VL: DIQMTQSPSSLSASVGDRVTITCQASHDISNYLNWYQQKPGKAPKLLIFDASYLETGVPSRFSGSGSGTDFTFTINSLQSEDIATYYCQQYDTLLSFGGGTRVEIK
# Target: T1, recombinant DbpA from B. burgdorferi strain 297 (DbpA297) (Borrelia burgdorferi strain 297, UniProt O50917)
# T1 construct: also called recombinant DbpA297
# T1 sequence (O50917 30-168): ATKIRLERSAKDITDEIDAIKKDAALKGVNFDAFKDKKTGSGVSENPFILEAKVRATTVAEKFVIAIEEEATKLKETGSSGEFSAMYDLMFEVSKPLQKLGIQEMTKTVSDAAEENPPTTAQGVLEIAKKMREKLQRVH
# Experiment: multiplex microsphere immunoassay (MIA, Luminex); recombinant antigens coupled to MagPlex-C microspheres; diluted MAb incubated 1 h at RT; PE-labelled secondary antibody; MFI read on a FlexMap 3D
# Details: both partners purified
binder,measurement,value
B1,binding result,no binding
